This note sets out measurements from patent US20240124597A1 (Bristol-Myers Squibb, published 2024).

Where a chain is given by its changes, count along the chain named. In names and notes the source's numbering stands.

Test [1] concerns the target T1, human-CD40-monomer protein (human, UniProt P25942 21-193, limits assumed).
T1 construct: Soluble monomer generated in house, used as SPR analyte; also called hCD40; hCD40-monomer
The test is described as follows: SPR, Ab captured on protein A, hCD40 monomer 500 and 50 nM, 1:1 fit; supernatant; sup (supernatant); Vh-hz2 / Vk-hz2. The protocol:
Titer analysis was performed using Biolayer Interferometry (BLI) on an Octet RED instrument (Fortebio) by capturing antibodies from supernatant using protein A sensor tips and measuring capture response with respect to a standard curve obtained using a control antibody sample. SPR data were obtained by capturing antibodies on a protein A surface and testing the binding of 500 nM and 50 nM injections of human-CD40 analyte, using a BIAcore™ T200 instrument (GE Healthcare). The kinetic data for the two concentrations of hCD40-monomer were fit to a 1:1 Langmuir model, to yield estimates of the kinetic and affinity values for these interactions, and for comparison of the different molecules.

Test [2] has as its target T1, human-CD40-monomer protein. Nature of the test: SPR, Ab captured on protein A, hCD40 monomer 500 and 50 nM, 1:1 fit; supernatant. In outline:
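Antibodies captured on protein A surface; human CD40 monomer injected as analyte at 500 nM and 50 nM. Kinetic data from both concentrations fitted to 1:1 Langmuir model to estimate kinetic and affinity values. Supernatant titers determined by BLI protein A capture against a control antibody standard curve.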

The target in test [3] is T1, human-CD40-monomer protein. The test is described as follows: SPR, purified Ab captured on protein A, hCD40 monomer 500-3.9 nM, 37 C, 1:1 Langmuir fit. The protocol: (§1) Based on the sequences, titer, and SPR binding data, antibodies were selected for larger scale expression, purification, and further characterization. SPR analysis using purified antibodies was performed by capturing antibodies on a protein A surface, with binding of a 500-3.9 nM (2:1) dilution series of human-CD40 monomer, at either 25° C. or 37° C. in PBS-T pH 7.1 buffer; the titration data was fit to a 1:1 Langmuir model.
(§2) SPR data are fit to a 1:1 Langmuir model using BIAcore™ T200 evaluation software to obtain values for the association rate constant (ka), dissociation rate constant (kd) and dissociation constant (KD).

Test [4] concerns the target T2, human CD40 on cells (tonsillar B cells, immature dendritic cells, Ramos-Blue cells) (human, UniProt P25942 21-277). Nature of the test: cell-based or functional assay.
Test [5] deals with T3, hCD64 (human, UniProt P12314 16-288, limits assumed).
T3 construct: His-tagged; also called hFcγRI
T3 sequence (P12314 16-288 limits assumed): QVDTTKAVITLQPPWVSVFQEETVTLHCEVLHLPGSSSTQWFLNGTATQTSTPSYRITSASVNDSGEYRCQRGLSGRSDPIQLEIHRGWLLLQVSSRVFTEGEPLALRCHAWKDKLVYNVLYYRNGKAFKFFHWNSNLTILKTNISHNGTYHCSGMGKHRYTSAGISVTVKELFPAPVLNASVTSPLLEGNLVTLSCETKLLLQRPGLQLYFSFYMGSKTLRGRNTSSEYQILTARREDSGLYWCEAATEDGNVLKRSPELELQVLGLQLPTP
Nature of the test: SPR, antibody captured on protein A, His-tagged hCD64 as analyte; %Rmax against hCD64 concentration. How it is done:
(§3) FcγR binding SPR: FcγR binding can be measured in vitro using purified FcγRs using methods, such as BIAcore™ surface plasmon resonance (SPR). One method tests the binding of purified His-tagged FcγR proteins (FcγR-his) to antibodies that are captured on a sensor surface containing protein A which has been immobilized using standard ethyl(dimethylaminopropyl) carbodiimide (EDC)/N-hydroxysuccinimide (NHS) chemistry with ethanolamine blocking. These experiments are performed on a BIAcore™ T200 instrument (GE Healthcare, Marlborough, MA) at 25° C. For example, samples of purified antibody at 3 μg/ml concentration are first captured on the immobilized protein A surface using a 15 second (s) contact time at 10 μl/min flow rate. This is followed by the binding of purified FcγR-His proteins at various concentrations, such as 10 μM-1.5 nM (2:1 dilution series) or 10 μM-13.7 nM (2:1 dilution series), using 120 s association and dissociation times at a flow rate of 30 μ/min. All steps are performed in a running buffer consisting of 10 mM NaPO₄, 130 mM NaCl, 0.05% p20 (PBS-T) pH 7.1. FcγR proteins tested in these studies include the “high affinity” FcγR CD64 (hFcγRI), as well as the “low affinity” FcγRs CD32a-H131 (FcγRIIa-H131), CD32a-R131 (FcγRIIa-R131), CD32b (FcγRIIb), CD16a-V158 (FcγRIIIa-V158), and CD16a-F158 (FcγRIIIa-F158), which were expressed and purified in house. […]

The target in the next test is T4, hCD32b (human, UniProt P31994 43-217, limits assumed).
T4 construct: His-tagged; also called FcγRIIb
T4 sequence (looked up): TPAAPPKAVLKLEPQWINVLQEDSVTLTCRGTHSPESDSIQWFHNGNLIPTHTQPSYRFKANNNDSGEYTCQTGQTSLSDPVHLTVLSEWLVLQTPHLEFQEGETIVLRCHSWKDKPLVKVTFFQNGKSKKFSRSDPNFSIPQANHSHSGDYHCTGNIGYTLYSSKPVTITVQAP
The test is described as follows: SPR, antibody captured on protein A, His-tagged FcγR as analyte; 1:1 steady state fit. How it is done:
(§4) FcγR binding SPR: FcγR binding can be measured in vitro using purified FcγRs using methods, such as BIAcore™ surface plasmon resonance (SPR). One method tests the binding of purified His-tagged FcγR proteins (FcγR-his) to antibodies that are captured on a sensor surface containing protein A which has been immobilized using standard ethyl(dimethylaminopropyl) carbodiimide (EDC)/N-hydroxysuccinimide (NHS) chemistry with ethanolamine blocking. These experiments are performed on a BIAcore™ T200 instrument (GE Healthcare, Marlborough, MA) at 25° C. For example, samples of purified antibody at 3 μg/ml concentration are first captured on the immobilized protein A surface using a 15 second (s) contact time at 10 μl/min flow rate. This is followed by the binding of purified FcγR-His proteins at various concentrations, such as 10 μM-1.5 nM (2:1 dilution series) or 10 μM-13.7 nM (2:1 dilution series), using 120 s association and dissociation times at a flow rate of 30 μ/min. All steps are performed in a running buffer consisting of 10 mM NaPO₄, 130 mM NaCl, 0.05% p20 (PBS-T) pH 7.1. FcγR proteins tested in these studies include the “high affinity” FcγR CD64 (hFcγRI), as well as the “low affinity” FcγRs CD32a-H131 (FcγRIIa-H131), CD32a-R131 (FcγRIIa-R131), CD32b (FcγRIIb), CD16a-V158 (FcγRIIIa-V158), and CD16a-F158 (FcγRIIIa-F158), which were expressed and purified in house. SPR data are fit to either a 1:1 Langmuir model, or a 1:1 steady state model using BIAcore™ T200 evaluation software to obtain values for the association rate constant (ka), dissociation rate constant (kd) and dissociation constant (KD).

For another test, the target named is T5, hCD16a-V158 (human, UniProt P08637 17-208).
T5 construct: His-tagged; V158 allotype; also called FcγRIIIa-V158
T5 sequence (P08637 17-208 F176V limits assumed): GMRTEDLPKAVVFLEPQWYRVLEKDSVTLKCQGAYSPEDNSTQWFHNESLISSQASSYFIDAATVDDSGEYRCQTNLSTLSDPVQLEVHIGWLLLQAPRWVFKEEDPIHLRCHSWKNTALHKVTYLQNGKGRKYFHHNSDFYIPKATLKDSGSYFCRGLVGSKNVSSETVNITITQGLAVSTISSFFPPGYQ
The test is described as above. How it is done: as §4

The next test addresses T6, hCD16a-F158 (human, UniProt P08637 17-208).
T6 construct: His-tagged; F158 allotype; also called FcγRIIIa-F158
The description is as above. How it is done: as §4

The target of another test is T7, hCD32a-H131 (human, UniProt P12318 34-217, limits assumed).
T7 construct: His-tagged; H131 allotype; also called FcγRIIa-H131
T7 sequence (looked up): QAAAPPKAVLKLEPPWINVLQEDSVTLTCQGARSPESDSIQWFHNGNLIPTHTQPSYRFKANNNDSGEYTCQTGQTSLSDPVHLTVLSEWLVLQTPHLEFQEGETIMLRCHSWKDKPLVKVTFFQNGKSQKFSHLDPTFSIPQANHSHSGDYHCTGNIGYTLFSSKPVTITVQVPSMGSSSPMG
The test is described as above. How it is done: as §4

In another test the target is T8, hCD32a-R131 (human, UniProt P12318 34-217, limits assumed).
T8 construct: His-tagged; R131 allotype; also called FcγRIIa-R131
T8 sequence (looked up): T7 sequence (looked up) with H134R
Described as above. The protocol: as §4

Test [6] has as its target T3, hCD64. The test is described as follows: SPR, Ab captured on protein A, hCD64-His 10 µM-1.5 nM as analyte. The protocol: as §3
Test [7] has as its target T2, human CD40 on cells (tonsillar B cells, …). The test is described as follows: cell-based or functional assay. The source holds these as a separate data set.
For test [8], the target named is T3, hCD64. Nature of the test: SPR, antibody captured on protein A, His-tagged FcγR as analyte; 1:1 Langmuir fit. How it is done: as §3
Test [9] addresses T1, human-CD40-monomer protein. Nature of the test: SPR, purified Ab captured on protein A, hCD40 monomer 500-3.9 nM, 25 C, 1:1 Langmuir fit. How it is done:
as §1, §2

T1 sequence (P25942 21-193 limits assumed): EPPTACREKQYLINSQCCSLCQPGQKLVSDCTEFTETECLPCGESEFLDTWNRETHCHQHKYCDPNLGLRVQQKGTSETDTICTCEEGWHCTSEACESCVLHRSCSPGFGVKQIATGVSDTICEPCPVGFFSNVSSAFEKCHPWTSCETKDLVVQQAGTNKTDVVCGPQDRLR
T2 sequence (P25942 21-277 limits assumed): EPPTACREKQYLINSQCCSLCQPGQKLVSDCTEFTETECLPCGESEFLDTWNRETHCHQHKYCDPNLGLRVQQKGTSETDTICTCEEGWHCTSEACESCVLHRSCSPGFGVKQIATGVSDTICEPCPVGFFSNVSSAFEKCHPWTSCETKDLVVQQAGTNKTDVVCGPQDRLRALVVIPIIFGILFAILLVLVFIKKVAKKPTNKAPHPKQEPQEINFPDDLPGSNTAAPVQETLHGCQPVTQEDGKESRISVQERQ
T6 sequence (P08637 17-208 limits assumed): as the sequence (P08637 17-208 F176V limits assumed) above, with V160F counted along it

B1: Y12XX-hz16 (antibody, human IgG1, kappa, V domains shown)
VH: QVQLVQSGAEVKKPGSSVKVSCKASGYAFTSYWMHWVRQRPGQGLEWMGFINPTTGYSEYNQKFKDRVTITADKSTSTAYMELSSLRSEDTAVYYCARWGLPPFAYWGQGTLVTVSS
VL: DIQMTQSPSFLSASVGDRVTITCKASQDVSTAVAWYQQKPGKAPKLLIYSASYRYTGVPSRFSGSGSGTDFTLTISSLQPEDFATYYCQQHYSTPWTFGGGTKVEIKR
notes: Humanized, IgG1-P238K; supernatant sample
Turning to B1, the kon in test [1] worked out at 200000 M⁻¹ s⁻¹. In [2], this molecule returned a Kd of 3.2 nM and a koff of 0.00064 s⁻¹.

B2: Y12XX-hz28-P238K (antibody, human IgG1, kappa)
heavy: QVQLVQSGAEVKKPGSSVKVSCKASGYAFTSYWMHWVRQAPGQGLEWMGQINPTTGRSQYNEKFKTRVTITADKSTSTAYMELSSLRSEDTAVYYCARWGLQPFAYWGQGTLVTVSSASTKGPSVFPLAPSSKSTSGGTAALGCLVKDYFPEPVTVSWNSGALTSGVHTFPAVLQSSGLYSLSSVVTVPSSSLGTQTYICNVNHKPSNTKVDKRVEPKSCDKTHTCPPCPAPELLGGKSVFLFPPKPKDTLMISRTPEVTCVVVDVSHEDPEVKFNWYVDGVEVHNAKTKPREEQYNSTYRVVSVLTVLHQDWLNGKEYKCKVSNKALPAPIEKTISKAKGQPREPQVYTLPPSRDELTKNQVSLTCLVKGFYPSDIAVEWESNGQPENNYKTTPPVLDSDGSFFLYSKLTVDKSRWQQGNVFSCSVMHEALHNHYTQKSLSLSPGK
light: DIQMTQSPSFLSASVGDRVTITCKASQDVSTAVAWYQQKPGKAPKLLIYSASYRYTGVPSRFSGSGSGTDFTLTISSLQPEDFATYYCQQHYSTPWTFGGGTKVEIKRTVAAPSVFIFPPSDEQLKSGTASVVCLLNNFYPREAKVQWKVDNALQSGNSQESVTEQDSKDSTYSLSSTLTLSKADYEKHKVYACEVTHQGLSSPVTKSFNRGEC
notes: also called Y12XX-hz28-IgG1-P238K; Y12XX-hx28-IgG1-P238K
As to B2, the Kd was 8.5 nM in [3]; over 50 µM with hCD32b; over 50 µM with hCD16a-V158; over 50 µM with hCD16a-F158; over 50 µM with hCD32a-H131; over 50 µM with hCD32a-R131. Besides, the Kd in the test with hCD64 [8] worked out at 25 nM; in test [2], 3.5 nM; in test [9] it was 3.1 nM. Moreover, the values for the koff in [3], in [2] and in [9] were 0.0037 s⁻¹, 0.00062 s⁻¹ and 0.00069 s⁻¹, respectively. In addition, the kon in test [3] is 440000 M⁻¹ s⁻¹; in [2], 180000 M⁻¹ s⁻¹; in test [9], 220000 M⁻¹ s⁻¹. Also, the “Potency for inhibition of CD40L expressing CHO cells stimulation of B cell proliferation (IC50 ng/ml)” value in [4] was determined as 38.1 ng/mL. In addition, in the test with hCD64 [5], the “EC50 (read off the curve)” value was about 30 nM. Also, the “fold weaker binding compared to wild type (control-IgG1)” value with hCD64 [6] was determined as 125 fold. In addition, the “Inhibition of B cell proliferation induced by soluble CD40L trimer, Average (IC50 ng/ml)” value in test [7] stood at 6.7 ng/mL.
